Assay results from publication PMC7491320, “Pdc2/Pat1 increases the range of decay factors and RNA bound by the Lsm1–7 complex” (RNA, 2019).

Key:
[1] = target: the molecule itself; experiment: AUC; sedimentation velocity, 9.3 µM PatMC/Lsm1–7 without RNA, 250 mM NaCl, 20 mM HEPES pH 7.0, 1 mM DTT, 22°C, 30,000 rpm, 10–12 h
[2] = target: the molecule itself; experiment: AUC; sedimentation velocity, 9.3 µM PatMC/Lsm1–7 with stoichiometric A15 RNA, 250 mM NaCl, 20 mM HEPES pH 7.0, 1 mM DTT, 22°C, 30,000 rpm, 10–12 h

B1: PatMC/Lsm1–7 complex (complex)
chain 1: LDEKRQKLERDHMLMAQCAGLMTRSDKSFIARIQISQLMSEDPESDDFYYRVYSIIRGRKPSEEEASHFIQTYLGPSNNRRRGRRSENPMQKLQQQLQRLVSSAKERPKATQLSLEGALGKIAVNTVRTPRQLLNVKRPTEPASSNSSLNNFSGFSTKKDVLHAIEKVYDLLLDFEQALRKASTLETTDQEQIDTWKTTLSEKLESIWKALYINESLEASSKTRPPFISIISHPKGMRLLPRLFPHLSKEQQISILKVVVYNFDSLDIVLRGTFDVNGELPLDVVSEMSSFTQFIIPPLLTIVNELDLETINNLFSQLLNRTNAVYLIQTKIGLSFLTLFISRAEILKQSGTVNQNEKEEWENTFNVMFNRVKGHFSTVFPPPNARAYADESYPWEFLAACATAASSEQHFTLVSETRDRVLDNIITSKRAPSEIAVVRISNVNLFLNAMGLDARQLSA
chain 2: MNQATQIIPFTTSGSLVDYVDRKVIVVLRDGKKLIGILRSFDQFANLMLQYTIERIYVDDMYGDIDRGVYIVRGENVVLLGELDLDKEYDAVKQLRRMPAEELYPLAKLHEEEKKKNIREKGKYLHSVGFSVDGGHDDLY
chain 3: MLFYSFFKTLIDTEVTVELKNDMSIRGILKSVDQFLNVKLENISVVDASKYPHMAAVKDLFIRGSVVRYVHMSSAYVDTILLADACRRDLANNKRQ
chain 4: not shown
chain 5: MLPLTLLNATQGRPILVELKNGETFNGHLENCDNYMNLTLREVIRTMPDGDKFFRLPECYIRGNNIKYLRIQDEVLSQVAKQQAQQRENRGSRFRGRGQRGRGNYGHTAPNRRGRGRGGHM
chain 6: not shown
chain 7: MDSSPNEFLNKVIGKKVLIRLSSGVDYKGILSCLDGYMNLALERTEEYVNGKKTNVYGDAFIRGNNVLYVSALDD
chain 8: MSSLQKRPGPGNSSQPTERPRKESILDLSRYQDQRIQATFTGGRQITGILKGFDQLMNLVLDDVEEQLRNPEDGKLTGAIRKLGLVVVRGTTLVLIAPMDGSEEIPNPFVQAE
notes: Pat1 (Pdc2) of S. pombe, middle and carboxy-terminal domains (PatMC), residues 296-754, codon optimized; Lsm1 of S. pombe, from a polycistron with all seven Lsm proteins; Lsm2 of S. pombe, from the polycistron; Lsm3 of S. pombe, from the polycistron; Lsm4 of S. pombe, from the polycistron; Lsm5 of S. pombe, from the polycistron; Lsm6 of S. pombe, from the polycistron; Lsm7 of S. pombe, from the …
**Q.** With B1 as the protein, how does the “stoichiometry N” value [1] read?
**A.** 2

**Q.** And the “stoichiometry N” value [2]?
**A.** 4
